Source: patent US20140057857A1

Legend:
GST-Mcl-1 [1] = assay: competitive FP assay on Mcl-1
GST-Bcl-xL = assay: fluorescence polarization assay, labeled peptide on GST-Bcl-xL
GST-Mcl-1 [2] = assay: fluorescence polarization assay, labeled peptide on GST-Mcl-1

| Substance | IC50 (GST-Mcl-1 [1]) [nM] | Kd (GST-Bcl-xL) [nM] | Kd (GST-Mcl-1 [2]) [nM] |
| --- | --- | --- | --- |
| Ubiquitin-Noxa fusion protein | 160 | – | – |
| Bak (fluorescein-labeled Bak peptide) | – | 14 | 127 |
| Bim (fluorescein-labeled Bim peptide) | – | 1.4 | 2.5 |
